Laboratory results published in patent US20250011380A1.

Assays:
Test in all cases: cell-based or functional assay
[1] = molecular target: IL-2Rβ and common γ chain on 32Dβ cells
IL2Rαβγ on CTLL2 cells = molecular target: IL2Rαβγ on CTLL2 cells
IL-21R on B9 cells = molecular target: IL-21R on B9 cells

Sequence of IL2Rαβγ on CTLL2 cells (P01590 22-268, chain 1 of 3): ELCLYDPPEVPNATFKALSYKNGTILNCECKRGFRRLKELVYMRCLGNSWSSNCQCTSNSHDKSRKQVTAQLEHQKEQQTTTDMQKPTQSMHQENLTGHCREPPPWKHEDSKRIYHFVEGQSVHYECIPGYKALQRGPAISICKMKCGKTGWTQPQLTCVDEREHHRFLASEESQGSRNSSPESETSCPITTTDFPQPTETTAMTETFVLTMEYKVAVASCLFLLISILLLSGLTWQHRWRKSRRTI
Sequence of IL2Rαβγ on CTLL2 cells (P16297 27-539, chain 2 of 3, further chain): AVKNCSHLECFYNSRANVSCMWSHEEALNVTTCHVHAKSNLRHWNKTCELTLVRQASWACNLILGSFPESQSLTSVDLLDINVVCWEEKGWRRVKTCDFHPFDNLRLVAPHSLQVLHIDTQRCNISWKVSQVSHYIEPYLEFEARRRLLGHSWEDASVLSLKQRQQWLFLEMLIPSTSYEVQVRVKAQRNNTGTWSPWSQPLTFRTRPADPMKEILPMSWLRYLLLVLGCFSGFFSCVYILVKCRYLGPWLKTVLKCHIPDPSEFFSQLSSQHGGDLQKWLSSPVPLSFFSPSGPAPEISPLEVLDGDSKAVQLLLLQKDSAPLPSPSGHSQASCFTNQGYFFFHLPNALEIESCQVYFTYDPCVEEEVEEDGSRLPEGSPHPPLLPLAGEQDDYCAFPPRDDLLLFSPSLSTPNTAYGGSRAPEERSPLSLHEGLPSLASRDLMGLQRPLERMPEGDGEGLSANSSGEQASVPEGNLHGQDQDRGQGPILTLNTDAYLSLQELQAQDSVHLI
Sequence of IL2Rαβγ on CTLL2 cells (P34902 23-369, chain 3 of 3, further chain): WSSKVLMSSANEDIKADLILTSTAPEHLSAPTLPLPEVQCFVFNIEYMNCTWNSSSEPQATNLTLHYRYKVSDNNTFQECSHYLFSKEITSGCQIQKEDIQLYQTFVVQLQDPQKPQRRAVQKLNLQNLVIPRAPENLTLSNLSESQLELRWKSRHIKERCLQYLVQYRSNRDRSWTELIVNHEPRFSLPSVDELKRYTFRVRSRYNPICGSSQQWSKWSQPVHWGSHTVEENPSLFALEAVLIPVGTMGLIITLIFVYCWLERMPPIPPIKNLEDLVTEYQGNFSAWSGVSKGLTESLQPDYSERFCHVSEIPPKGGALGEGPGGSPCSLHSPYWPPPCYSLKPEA

Substance | EC50, 32Dβ cell proliferation (WST1) [1] | EC50, CTLL-2 cell proliferation (WST1) (IL2Rαβγ on CTLL2 cells) | EC50, B9 cell proliferation (WST1) (IL-21R on B9 cells)
recombinant IL-2 (from UniProt P60568 21-153) (ligand) | 140 pM | 548 pM | –
recombinant IL-21 (from UniProt Q9HBE4 32-162) (ligand) | – | – | 72600 pM
